Results on 2 proteins are retold here after PMC7335073, “Comprehensive structure-function characterization of DNMT3B and DNMT3A reveals distinctive de novo DNA methylation mechanisms” (Nature Communications, 2020).

This data set deals with the molecule itself. The data set is described as follows: crystal structure; covalent DNMT3B–DNMT3L–DNA complexes (25-mer Zebularine DNA: CGA, CGT or CAG) with SAH; proteins co-expressed in E. coli and purified as a complex; hanging-drop vapor diffusion, 0.1 M Tris-HCl pH 8.0, MgCl2, PEG, 0.2 mM AdoHcy, 4 °C or 16 °C.

Where a chain is given by its changes, count along the chain named. Names may count otherwise.

B1: MTase domain of human DNMT3B (residues 562–853) (domain or fragment, UniProt Q9UBC3-1 562-853, looked up)
chain: KLYPAIPAARRRPIRVLSLFDGIATGYLVLKELGIKVGKYVASEVCEESIAVGTVKHEGNIKYVNDVRNITKKNIEEWGPFDLVIGGSPCNDLSNVNPARKGLYEGTGRLFFEFYHLLNYSRPKEGDDRPFFWMFENVVAMKVGDKRDISRFLECNPVMIDAIKVSAAHRARYFWGNLPGMNRPVIASKNDKLELQDCLEYNRIAKLKKVQTITTKSNSIKQGKNQLFPVVMNGKEDVLWCTELERIFGFPVHYTDVSNMGRGARQKLLGRSWSVPVIRHLFAPLKDYFACE
modifications: catalytic cysteine C651 covalently linked to the Zebularine of the DNA
notes: Two copies stand in the DNMT3L–DNMT3B–DNMT3B–DNMT3L heterotetramer; also called hDNMT3B; WT DNMT3B; source: E. coli BL21 DE3 (RIL), co-expressed with DNMT3L, purified (Ni-NTA, Heparin HP, SEC; after DNA cross-linking HiTrap Q XL, SEC); not shown: His6, N-terminal, cleaved; SUMO, N-terminal, cleaved
For B1, the binding result is listed as “binds”.

B2: K777A-mutated MTase domain of human DNMT3B (residues 562–853) (domain or fragment, UniProt Q9UBC3-1 562-853, looked up)
chain: B1 chain with K216A
modifications: catalytic cysteine C651 covalently linked to the Zebularine of the DNA
notes: also called K777A DNMT3B; source: E. coli BL21 DE3 (RIL), co-expressed with DNMT3L, purified (Ni-NTA, Heparin HP, SEC; after DNA cross-linking HiTrap Q XL, SEC); not shown: His6, N-terminal, cleaved; SUMO, N-terminal, cleaved
Regarding B2, the binding result was “binds”.
